Measurements published in patent publication US20120094909A1 (Bristol-Myers Squibb, published 2012).
Changes are numbered by the printed parent chain.

B1: 2381B02 (designed binder)
chain: MGVSDVPRDLEVVAATPTSLLISWEPFSRLPGGGEYYRITYGETGGNSPLQQFTVPGSKGTATISGLKPGVDYTITVYAVEYPYDYSGYYHRPISINYRTEIDKPSQHHHHHH
B2: 2381B04 (designed binder)
chain: B1 chain with D85E, Y86H
B3: 2381D04 (designed binder)
chain: B1 chain with Y82F, Y86H
B4: 2451C06 (designed binder)
chain: MGVSDVPRDLEVVAATPTSLLISWDAPAGAASYGYYRITYGETGGNSPVQEFTVPVSKGTATISGLKPGVDYTITVYAVEFPFPGAGYYHRPISINYRTEIDKPSQHHHHHH
B5: 2382D05 (designed binder)
chain: MGVSDVPRDLEVVAATPTSLLISWDAPADGGYGYYRITYGETGGNSPVQEFTVPVSKGTATISGLKPGVDYTITVYAVEFDFPGAGYYHRPISINYRTEIDKPSQHHHHHH
B6: 2382E03 (designed binder)
chain: B5 chain with D29G, G30D
B7: 2382C05 (designed binder)
chain: B5 chain with G31A, F80Y, D81S
B8: 2381F11 (designed binder)
chain: B5 chain with G58S, F80Y, D81T
B9: 2382D03 (designed binder)
chain: B5 chain with G30E, G31A
B10: 2381B08 (designed binder)
chain: B5 chain with V55S, F80Y, D81T
B11: 2381G09 (designed binder)
chain: B5 chain with D29G, G30D, D81T
B12: 2382H03 (designed binder)
chain: B5 chain with D29E, G31A, F80Y, D81P, F82Y, G84F
B13: 2382G04 (designed binder)
chain: B5 chain with D29G, V55S
B14: 2382E05 (designed binder)
chain: B5 chain with D29E
B15: 2381H09 (designed binder)
chain: B5 chain with D29G, P83V
B16: 2382B09 (designed binder)
chain: MGVSDVPRDLEVVAATPTSLLISWDAPADAYGYYRITYGETGGNSPVQEFTVPVSKGTATISGLKPGVDYTITVYAVEFDYPGSGYYHRPISINYRTEIDKPSQHHHHHH
B17: 2382H09 (designed binder)
chain: B16 chain with D29A, V54S, Y81F
B18: 2382D09 (designed binder)
chain: B16 chain with D29E, A30G, Y81F, S84A
B19: 2382C09 (designed binder)
chain: B16 chain with D29E, A30G, Y81F
notes: Anti-PCSK9 Adnectin, His6-tagged
B20: 2382B09 (designed binder)
chain: B16 chain
notes: as for B19
B21: 2971E02 (designed binder)
chain: B16 chain with A28S, A30D, V54I, S55G, D80P, Y81W, G83H, S84A
B22: 2382B10 (designed binder)
chain: B16 chain with V54S, F79Y, Y81F
notes: as for B19
B23: 2382B10 (designed binder)
chain: B16 chain with V54S, F79Y, Y81F
B24: 2382D09 (designed binder)
chain: B16 chain with D29E, A30G, Y81F, S84A
notes: as for B19
B25: 2971A09 (designed binder)
chain: B16 chain with A30D, V54I, S55G, D80P, Y81W, G83H, S84A
B26: 2382H10 (designed binder)
chain: B16 chain with D29G, A30G, Y81F
B27: 2382H09 (designed binder)
chain: B16 chain with D29A, V54S, Y81F
notes: as for B19
B28: 2382C09 (designed binder)
chain: B16 chain with D29E, A30G, Y81F
B29: 2971A03 (designed binder)
chain: B16 chain with A26P, A28S, A30D, V54I, S55G, D80P, Y81W, G83H, S84A
B30: 2382F05 (designed binder)
chain: MGVSDVPRDLEVVAATPTSLLISWDAPAEAGKHYGYYRITYGETGGNSPVQEFTVPVSKGTATISGLKPGVDYTITVYAVEFDFPGAGYYHRPISINYRTEIDKPSQHHHHHH
B31: 2451H07 (designed binder)
chain: MGITDVPRDLEVVAATPTSLLISWNPPDVNYGYYRITYGETGGNSPLQEFTVPVSKGTATISGLKPGVDYTITVYAVEYPYAHAGYYHRPISINYRTEIDKPSQHHHHHH

Assays:
[1] = target: T1, human PCSK9 (proprotein convertase subtilisin kexin type 9) (human, UniProt Q8NBP7 31-692); test: BLI (Octet Red), 37 C
T1 construct: immobilized directly (ProteOn), biotinylated (Octet) or in solution, according to the assay; also called hPCSK9; PCSK9-AF647 (labelled form)
Protocol: (§1) Tips were then immersed into a buffer-only well for observation of Adnectin dissociation. Experiments were performed in a temperature controlled environment at either 25 or 37° C., and the oscillation speed was set at 1500 rpm.
(§2) Binding interaction analysis was performed using proprietary software from Fortebio (Fortebio Data Analysis Software version 6.3.0.36). Global fits were performed for all samples, using a 1:1 binding model. The nature of these global fits constrained all values of concentration to a single pair of association and dissociation rates that were themselves constrained to each other. Affinities (KD), association and dissociation rates were averaged over the various loading levels used in the analysis.

[2] = target: T1, human PCSK9 (proprotein convertase …); test: cell-based or functional assay
[3] = target: T1, human PCSK9 (proprotein convertase …); test: PCSK9:EGFA FRET, competitor EGFA peptide
[4] = target: T2, human PCSK9 (proprotein convertase subtilisin kexin type 9) (human, UniProt Q8NBP7 31-692); test: BLI Octet Red, 37 C
T2 construct: Directly immobilized (SPR ProteOn), biotinylated (BLI), or in solution, depending on the assay; also called hPCSK9
Protocol: as §1, §2

[5] = target: T2, human PCSK9 (proprotein convertase …); test: FRET, competitor ATI001125
Text: (§3) Table 11 summarizes the overall data from these three FRET assays.

[6] = target: T2, human PCSK9 (proprotein convertase …); test: FRET, competitor EGFA peptide
Text: as §3

cynomolgus monkey PCSK9 = cynomolgus monkey PCSK9 (cynomolgus monkey, UniProt A0A7N9D9N8 150-747); test: FRET, competitor EGFA peptide
Text: as §3

[7] = target: T2, human PCSK9 (proprotein convertase …); test: BLI, biotinylated hPCSK9 on sensor tips
Protocol: as §1, §2

[8] = target: T2, human PCSK9 (proprotein convertase …); test: FRET direct binding, anti-his6 antibody
Text: as §3

Binder	Kd [1] [nM]	LDLR Depletion (% inhibition at 75 nM) [2] [%]	EC50 [3] [nM]	also measured
B1	3.29	125	2.5	
B2	0.527	122	2.4	
B3	0.237	119	2.9	
B4	1.27	89.4	1.2	
B5	0.314		2.6	
B6	2.94	89.5	2.4	
B7	2.49	105	4	
B8	1.59	110	4	
B9	1.53	80.4	3.3	
B10	4.11	125	2.6	
B11	1.12	133	3.1	
B12	0.677	102	3.4	
B13	1.11	146	2.9	
B14	0.604	104	2.8	
B15	3.23	94.4	3.4	
B16	0.656	105	3.8	

Binder	Kd [1] [nM]	LDLR Depletion (% inhibition at 75 nM) [2] [%]	EC50 [3] [nM]	also measured
B17	1.86	101	0.9	
B18	0.304	109	2.6	
B19				Kd [4]: 0.757 nM; IC50 [5]: 0.6 nM; EC50 [6]: 3.5 nM; IC50 [6]: 3.5 nM; EC50 (cynomolgus monkey PCSK9): 23.9 nM; Kd [7]: 0.757 nM; koff [7]: 0.000233 s⁻¹; kon [7]: 349000 M⁻¹ s⁻¹; EC50 [8]: 2.9 nM
B20				Kd [4]: 0.656 nM; IC50 [5]: 0.6 nM; EC50 [6]: 3.8 nM; IC50 [6]: 3.8 nM; EC50 (cynomolgus monkey PCSK9): 37.2 nM; Kd [7]: 0.656 nM; koff [7]: 0.000291 s⁻¹; kon [7]: 451000 M⁻¹ s⁻¹; EC50 [8]: 4 nM
B21	1.78	126		
B22				Kd [4]: 2.35 nM; IC50 [5]: 0.5 nM; EC50 [6]: 3 nM; IC50 [6]: 3 nM; EC50 (cynomolgus monkey PCSK9): 18.1 nM; Kd [7]: 2.35 nM; koff [7]: 0.000977 s⁻¹; kon [7]: 394000 M⁻¹ s⁻¹; EC50 [8]: 3.1 nM
B23	2.35	100	3	
B24				Kd [4]: 0.304 nM; IC50 [5]: 0.4 nM; EC50 [6]: 2.6 nM; IC50 [6]: 2.6 nM; EC50 (cynomolgus monkey PCSK9): 13.9 nM; Kd [7]: 0.304 nM; koff [7]: 0.000164 s⁻¹; kon [7]: 533000 M⁻¹ s⁻¹; EC50 [8]: 3.7 nM
B25	2.79	132		
B26	1.4	119	2.6	
B27				Kd [4]: 1.86 nM; IC50 [5]: 0.3 nM; EC50 [6]: 0.9 nM; IC50 [6]: 0.9 nM; EC50 (cynomolgus monkey PCSK9): 17.9 nM; Kd [7]: 1.86 nM; koff [7]: 0.000483 s⁻¹; kon [7]: 251000 M⁻¹ s⁻¹; EC50 [8]: 3.6 nM
B28	0.757	122	3.5	
B29	0.806	120		
B30	4.54	72.2	2.4	
B31	2.08	88.8	0.2	
